In the assay the target is RagA:RagC^D181N GTPase heterodimer (UniProt Q7L523 1-313; Q9HB90 1-399, D181N). Description: SEC. For orientation: SEC sorts molecules by how far they enter the pores of the column.
Sequence of RagA:RagC^D181N GTPase heterodimer (Q7L523 whole entry, chain 1 of 2): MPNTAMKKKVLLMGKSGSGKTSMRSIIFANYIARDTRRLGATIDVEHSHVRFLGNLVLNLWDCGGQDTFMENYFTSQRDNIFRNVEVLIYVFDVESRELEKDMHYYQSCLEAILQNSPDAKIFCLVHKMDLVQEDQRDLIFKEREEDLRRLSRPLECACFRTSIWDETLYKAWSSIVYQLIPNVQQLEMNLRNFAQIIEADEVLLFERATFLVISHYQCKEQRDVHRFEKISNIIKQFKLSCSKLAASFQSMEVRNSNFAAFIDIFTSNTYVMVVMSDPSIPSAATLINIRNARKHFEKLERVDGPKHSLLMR
Sequence of RagA:RagC^D181N GTPase heterodimer (Q9HB90 whole entry D181N, chain 2 of 2): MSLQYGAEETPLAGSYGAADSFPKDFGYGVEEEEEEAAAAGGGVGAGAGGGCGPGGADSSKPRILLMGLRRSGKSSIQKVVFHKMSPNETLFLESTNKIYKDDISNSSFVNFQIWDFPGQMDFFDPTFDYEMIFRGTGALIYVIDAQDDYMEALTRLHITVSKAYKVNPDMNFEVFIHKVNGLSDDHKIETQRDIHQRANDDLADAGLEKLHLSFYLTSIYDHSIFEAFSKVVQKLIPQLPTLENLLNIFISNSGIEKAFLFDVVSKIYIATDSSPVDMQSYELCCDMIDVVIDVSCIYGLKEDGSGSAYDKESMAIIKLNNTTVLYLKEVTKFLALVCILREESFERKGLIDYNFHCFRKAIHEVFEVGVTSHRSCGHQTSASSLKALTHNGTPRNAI

B1: SLC38A9 N-terminal cytoplasmic tail (residues 1–119) (domain or fragment, human, UniProt Q8NBW4 1-119, looked up)
chain: MANMNSDSRHLGTSEVDHERDPGPMNIQFEPSDLRSKRPFCIEPTNIVNVNHVIQRVSDHASAMNKRIHYYSRLTTPADKALIAPDHVVPAPEECYVYSPLGSAYKLQSYTEGYGKNTS
As to B1, the binding result is “binds”.
